Data: patent US20250257149A1

Assays:
[1] = molecular target: MUC1 tandem repeat peptide …-T(X)-… with Galβ1-3GalNAcalpha (TF) at T (human); assay: antigen ELISA on TF-PDTR MUC1 peptide, purified antibody [panel Binding to TF-MUC1]
[2] = molecular target: MUC1 tandem repeat peptide …-T(X)-… with GalNAcalpha (Tn) at T (human); assay: antigen ELISA on Tn-PDTR MUC1 peptide, purified antibody [panel Binding to Tn-MUC1]
Sequence of MUC1 tandem repeat peptide …-T(X)-… with GalNAcalpha (Tn) at T (human) (peptide, as listed by the source): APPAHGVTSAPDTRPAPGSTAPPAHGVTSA

Sequence of MUC1 tandem repeat peptide …-T(X)-… with Galβ1-3GalNAcalpha (TF) at T (human) (peptide, as listed by the source): as above

EC50 (read off the curve) [1]: 8 ng/mL
EC50 (read off the curve) [2]: 10 ng/mL
Substance: PankoMab N54W (antibody)
